Test results from PMC4322223, “Biochemical and structural characterization of a thermostable β-glucosidase from Halothermothrix orenii for galacto-oligosaccharide synthesis” (Applied Microbiology and Biotechnology, 2014).

Assays:
Assay in all cases: purified protein
Details in all cases: 65 °C, 20 mM HEPES, 150 mM NaCl, pH 7.0
purified protein [1] = substrate: O=[N+]([O-])c1ccccc1O[C@@H]1O[C@H](CO)[C@@H](O)[C@H](O)[C@H]1O; format: biochemical, Halothermothrix orenii
purified protein [2] = substrate: O=[N+]([O-])c1ccccc1O[C@@H]1O[C@H](CO)[C@H](O)[C@H](O)[C@H]1O; format: biochemical, Halothermothrix orenii
purified protein [3] = substrate: O=[N+]([O-])c1ccc(O[C@@H]2O[C@H](CO)[C@H](O)[C@H](O)[C@H]2O)cc1
purified protein [4] = substrate: O=[N+]([O-])c1ccc(O[C@@H]2O[C@H](CO)[C@@H](O)[C@H](O)[C@H]2O)cc1

B1: HoBGLA (Halothermothrix orenii H 168) (protein)
chain: MAKIIFPEDFIWGAATSSYQIEGAFNEDGKGESIWDRFSHTPGKIENGDTGDIACDHYHLYREDIELMKEIGIRSYRFSTSWPRILPEGKGRVNQKGLDFYKRLVDNLLKANIRPMITLYHWDLPQALQDKGGWTNRDTAKYFAEYARLMFEEFNGLVDLWVTHNEPWVVAFEGHAFGNHAPGTKDFKTALQVAHHLLLSHGMAVDIFREEDLPGEIGITLNLTPAYPAGDSEKDVKAASLLDDYINAWFLSPVFKGSYPEELHHIYEQNLGAFTTQPGDMDIISRDIDFLGINYYSRMVVRHKPGDNLFNAEVVKMEDRPSTEMGWEIYPQGLYDILVRVNKEYTDKPLYITENGAAFDDKLTEEGKIHDEKRINYLGDHFKQAYKALKDGVPLRGYYVWSLMDNFEWAYGYSKRFGLIYVDYENGNRRFLKDSALWYREVIEKGQVEAN
notes: full length, 451 residues, GH1; pNIC28-Bsa4 N-terminal His6-TEV tag cut off with TEV protease; expressed in E. coli BL21(DE3); 53 kDa
- Km (purified protein [1]): 0.386 ± 0.002 mM
- kcat (purified protein [1]): 94.6 s⁻¹
- kcat/Km (purified protein [1]): 245000 M⁻¹ s⁻¹
- Km (purified protein [2]): 6.35 ± 0.8 mM
- kcat (purified protein [2]): 288 s⁻¹
- kcat/Km (purified protein [2]): 45300 M⁻¹ s⁻¹
- Km (purified protein [3]): 8.34 ± 0.61 mM
- kcat (purified protein [3]): 156 s⁻¹
- kcat/Km (purified protein [3]): 18700 M⁻¹ s⁻¹
- Km (purified protein [4]): 0.296 ± 0.001 mM
- kcat (purified protein [4]): 55.2 s⁻¹
- kcat/Km (purified protein [4]): 187000 M⁻¹ s⁻¹
